Data on 40 molecules can be found in patent US7432342 (dated 2008).

Experiment [1] addresses T1, PKA RIIα (full-length) (mouse, UniProt P12367). Description: FP.
The target of experiment [2] is T1, PKA RIIα (full-length). Description: FP. The source holds these as a separate data set.
Experiment [3] deals with T2, PKA RIα (full-length) (bovine, UniProt P00514). Description: FP.
The target of experiment [4] is T2, PKA RIα (full-length). As to the kind of experiment: FP. This is another data set of the same source.
Experiment [5] addresses PKA-RIα-GFP (UniProt P10644).
For experiment [6], the target named is PKA-RIIα-GFP (UniProt P13861).
In experiment [7] the target is PKA-RIα-GFP (UniProt P10644). Description: SPR.
Experiment [8] concerns the target PKA-RIα-GFP (UniProt P10644). This is another data set of the same source.
Experiment [9] deals with PKA-RIIα-GFP (UniProt P13861). The source holds these as a separate data set.
Experiment [10] concerns the target PKA-RIα-GFP (UniProt P10644). This is another data set of the same source.
In experiment [11] the target is PKA-RIIα-GFP (UniProt P13861). This is another data set of the same source.

Like-named read-outs stand apart in the source and are kept apart here. Ends that are not written are not given here.

Chain of PKA-RIα-GFP (P10644 whole entry): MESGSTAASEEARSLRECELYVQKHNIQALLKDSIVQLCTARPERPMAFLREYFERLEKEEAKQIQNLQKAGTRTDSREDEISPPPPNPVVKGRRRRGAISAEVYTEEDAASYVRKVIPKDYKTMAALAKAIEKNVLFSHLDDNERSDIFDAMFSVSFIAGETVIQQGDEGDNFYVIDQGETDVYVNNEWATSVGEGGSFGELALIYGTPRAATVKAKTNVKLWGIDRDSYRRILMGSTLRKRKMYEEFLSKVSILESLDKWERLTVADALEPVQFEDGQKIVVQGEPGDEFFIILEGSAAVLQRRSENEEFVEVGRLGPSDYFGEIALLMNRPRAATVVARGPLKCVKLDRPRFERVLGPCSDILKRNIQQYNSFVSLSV
T2 sequence (P00514 2-380): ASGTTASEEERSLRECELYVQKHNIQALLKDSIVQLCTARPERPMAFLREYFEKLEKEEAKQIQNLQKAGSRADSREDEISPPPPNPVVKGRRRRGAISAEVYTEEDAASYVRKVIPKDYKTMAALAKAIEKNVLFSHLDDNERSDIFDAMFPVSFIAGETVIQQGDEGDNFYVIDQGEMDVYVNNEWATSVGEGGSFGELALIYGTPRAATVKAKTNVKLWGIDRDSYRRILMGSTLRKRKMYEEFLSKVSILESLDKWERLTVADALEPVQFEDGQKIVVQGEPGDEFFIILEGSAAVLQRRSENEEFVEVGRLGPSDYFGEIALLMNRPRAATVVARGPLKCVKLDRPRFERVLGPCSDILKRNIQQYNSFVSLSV
Chain of PKA-RIIα-GFP (P13861 2-404): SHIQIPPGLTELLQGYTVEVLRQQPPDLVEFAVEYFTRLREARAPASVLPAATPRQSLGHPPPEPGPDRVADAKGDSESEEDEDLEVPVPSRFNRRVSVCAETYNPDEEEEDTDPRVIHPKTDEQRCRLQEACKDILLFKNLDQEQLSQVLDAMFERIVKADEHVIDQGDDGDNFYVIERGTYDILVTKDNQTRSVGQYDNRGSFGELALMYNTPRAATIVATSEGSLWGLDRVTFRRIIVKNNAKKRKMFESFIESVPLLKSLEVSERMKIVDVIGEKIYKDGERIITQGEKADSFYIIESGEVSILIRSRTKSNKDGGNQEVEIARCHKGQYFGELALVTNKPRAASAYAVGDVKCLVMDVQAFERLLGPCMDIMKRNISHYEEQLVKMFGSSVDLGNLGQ
T1 sequence (P12367 2-401): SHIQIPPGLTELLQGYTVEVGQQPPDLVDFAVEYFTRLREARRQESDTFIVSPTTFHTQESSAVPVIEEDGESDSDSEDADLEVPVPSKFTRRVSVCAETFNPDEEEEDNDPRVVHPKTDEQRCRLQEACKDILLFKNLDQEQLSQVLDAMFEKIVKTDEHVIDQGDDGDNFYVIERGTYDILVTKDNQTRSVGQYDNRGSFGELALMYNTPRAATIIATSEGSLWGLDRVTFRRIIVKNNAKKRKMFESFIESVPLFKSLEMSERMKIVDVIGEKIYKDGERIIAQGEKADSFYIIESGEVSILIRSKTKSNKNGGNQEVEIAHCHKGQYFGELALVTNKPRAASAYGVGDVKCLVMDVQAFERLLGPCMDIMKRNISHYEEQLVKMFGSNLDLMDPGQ

B1: AKB(RI) PV-38 (peptide)
chain: FEELAWKIAKMIWSDVFQQC
Regarding B1, the Kd in the experiment with PKA RIIα (full-length) [1] stood at 456 nM; in the experiment with PKA RIIα (full-length) [2], 456 nM; with PKA RIα (full-length) [3], 5.2 nM; in the experiment with PKA RIα (full-length) [4] it was 5.2 nM.

B2: AKB(RII) (peptide)
chain: VQGNTDEAQEELLWKIAKMIVSDVMQQC
modifications: also: fluorescently labeled
In the case of B2, the results for the Kd with PKA RIIα (full-length) [1] and with PKA RIα (full-length) [3] were 2.7 nM and 2490 nM, respectively.

B3: truncation SEQ 97 (peptide)
chain: VQGNTDEAQEEL
For B3, the binding result in the experiment with PKA-RIα-GFP [5] and with PKA-RIIα-GFP [6] was “no binding” in each case.

B4: Ac-27mer Val (peptide)
chain: Ac-VQGNTDEAQEELAWKIAKMIVSDVMQQ-NH2
In the experiment with PKA-RIα-GFP [7], B4 gave a Kd of 500 nM.

B5: truncation SEQ 78 (peptide)
chain: WKIAKMIVSDIMQQ
For B5, the binding result with PKA-RIα-GFP [8] and with PKA-RIIα-GFP [9] was “no binding” in each case.

B6: truncation SEQ 4 (peptide)
chain: EAQEELAWKIAKMIV
With B6, the binding result in the experiment with PKA-RIα-GFP [10] is recorded as “no binding”.

B7: PV-37 (peptide)
chain: FEELAWKIAKMIWSDVMQQC
For B7, the Kd stood at 150 nM in the experiment with PKA RIIα (full-length) [2] and 19 nM in the experiment with PKA RIα (full-length) [4].

B8: truncation SEQ 96 (peptide)
chain: VQGNTDEAQEELA
On to B8, for which the binding result with PKA-RIα-GFP [5] and in the experiment with PKA-RIIα-GFP [6] was “no binding” in each case.

B9: truncation SEQ 92 (peptide)
chain: VQGNTDEAQEELAWKIA
With B9, the binding result in the experiment with PKA-RIα-GFP [5] and in the experiment with PKA-RIIα-GFP [6] was “no binding” each time.

B10: truncation SEQ 91 (peptide)
chain: VQGNTDEAQEELAWKIAK
Take B10: the binding result with PKA-RIα-GFP [5] and with PKA-RIIα-GFP [6] was “no binding” in each case.

B11: truncation SEQ 89 (peptide)
chain: VQGNTDEAQEELAWKIAKMI
Regarding B11, the binding result with PKA-RIα-GFP [5] and with PKA-RIIα-GFP [6] was “no binding” each time.

B12: AKB(null) (peptide)
chain: VQGNTDEAQEELAWKIEKMIWSDVMQQC
modifications: also: fluorescently labeled
Take B12: the results for the Kd with PKA RIIα (full-length) [1] and in the experiment with PKA RIα (full-length) [3] were more than 10000 nM and 998 nM, respectively.

B13: PV-48 (peptide)
chain: QEEFAWKIAKMIISDVFQQC
Turning to B13, the Kd stood at 124 nM with PKA RIIα (full-length) [2] and 12 nM with PKA RIα (full-length) [4].

B14: truncation SEQ 98 (peptide)
chain: VQGNTDEAQEE
Consider B14, for which the binding result with PKA-RIα-GFP [5] and with PKA-RIIα-GFP [6] was “no binding” in each case.

B15: truncation SEQ 88 (peptide)
chain: VQGNTDEAQEELAWKIAKMIV
Consider B15, for which, in the experiment with PKA-RIα-GFP [5], the binding result is given as “no binding”.

B16: truncation SEQ 87 (peptide)
chain: VQGNTDEAQEELAWKIAKMIVS
Consider B16, for which the binding result with PKA-RIα-GFP [5] is “no binding”.

B17: V21W (peptide)
chain: VQGNTDEAQEELAWKIAKMIWSDVMQQC
In the case of B17, the dissociation constant (Kd) with PKA RIIα (full-length) [2] is 83 nM; in the experiment with PKA RIα (full-length) [4] it was 120 nM.

B18: truncation SEQ 82 (peptide)
chain: KMIVSDIMQQ
Consider B18, for which the binding result with PKA-RIα-GFP [8] and in the experiment with PKA-RIIα-GFP [9] was “no binding” throughout.

B19: truncation SEQ 90 (peptide)
chain: VQGNTDEAQEELAWKIAKM
As for B19, the binding result in the experiment with PKA-RIα-GFP [5] and in the experiment with PKA-RIIα-GFP [6] was “no binding” in each case.

B20: truncation SEQ 13 (peptide)
chain: ELAWKIA
As for B20, the binding result in the experiment with PKA-RIα-GFP [10] and with PKA-RIIα-GFP [11] was “no binding” each time.

B21: truncation SEQ 8 (peptide)
chain: TDEAQEELAWKIAKMIVSD
Take B21: the binding result with PKA-RIα-GFP [10] is “no binding”.

B22: truncation SEQ 80 (peptide)
chain: IAKMIVSDIMQQ
In the case of B22, the binding result with PKA-RIα-GFP [8] and with PKA-RIIα-GFP [9] was “no binding” in each case.

B23: truncation SEQ 76 (peptide)
chain: LAWKIAKMIVSDIMQQ
Take B23: in the experiment with PKA-RIα-GFP [8], the binding result is “no binding”.

B24: Ac-DLAWKIAKMIVSDVMQQC (peptide)
chain: Ac-DLAWKIAKMIVSDVMQQC
Turning to B24, the figures for the Kd with PKA RIIα (full-length) [2] and with PKA RIα (full-length) [4] were 107 nM and 773 nM, respectively.

B25: truncation SEQ 94 (peptide)
chain: VQGNTDEAQEELAWK
On to B25, for which the binding result with PKA-RIα-GFP [5] and in the experiment with PKA-RIIα-GFP [6] was “no binding” in each case.

B26: truncation SEQ 93 (peptide)
chain: VQGNTDEAQEELAWKI
For the molecule B26, the binding result with PKA-RIα-GFP [5] and with PKA-RIIα-GFP [6] was “no binding” throughout.

B27: truncation SEQ 77 (peptide)
chain: AWKIAKMIVSDIMQQ
In the case of B27, the binding result in the experiment with PKA-RIα-GFP [8] was “no binding”.

B28: truncation SEQ 99 (peptide)
chain: VQGNTDEAQE
For B28, the binding result with PKA-RIα-GFP [5] and in the experiment with PKA-RIIα-GFP [6] was “no binding” throughout.

B29: truncation SEQ 10 (peptide)
chain: AQEELAWKIAKMI
Regarding B29, the binding result with PKA-RIα-GFP [10] and in the experiment with PKA-RIIα-GFP [11] was “no binding” in each case.

B30: truncation SEQ 79 (peptide)
chain: KIAKMIVSDIMQQ
For B30, the binding result in the experiment with PKA-RIα-GFP [8] and with PKA-RIIα-GFP [9] was “no binding” throughout.

B31: truncation SEQ 86 (peptide)
chain: VQGNTDEAQEELAWKIAKMIVSD
In the case of B31, the binding result in the experiment with PKA-RIα-GFP [5] is on record as “no binding”.

B32: Ac-27mer Ile (peptide)
chain: Ac-VQGNTDEAQEELAWKIAKMIVSDIMQQ
In the experiment with PKA-RIα-GFP [7], B32 returned a Kd of 860 nM. This lies in the sub-micromolar range.

B33: AKB(dual) WT (peptide)
chain: VQGNTDEAQEELAWKIAKMIVSDVMQQC(tetramethylrhodamine)
Take B33: the Kd came to 2.2 nM in the experiment with PKA RIIα (full-length) [1], 2.2 nM in the experiment with PKA RIIα (full-length) [2], 48 nM with PKA RIα (full-length) [3] and 48 nM with PKA RIα (full-length) [4].

B34: PV-47 (peptide)
chain: QEEFAWKIAKMIVSDVFQQC
As for B34, the Kd came to 89 nM with PKA RIIα (full-length) [2] and 39 nM in the experiment with PKA RIα (full-length) [4].

B35: truncation SEQ 9 (peptide)
chain: DEAQEELAWKIAKMIVS
B35: the binding result in the experiment with PKA-RIα-GFP [10] is listed as “no binding”.

B36: truncation SEQ 81 (peptide)
chain: AKMIVSDIMQQ
As to B36, the binding result with PKA-RIα-GFP [8] and with PKA-RIIα-GFP [9] was “no binding” each time.

B37: truncation SEQ 95 (peptide)
chain: VQGNTDEAQEELAW
As for B37, the binding result in the experiment with PKA-RIα-GFP [5] and with PKA-RIIα-GFP [6] was “no binding” each time.

B38: PV-49 (peptide)
chain: FEELAWKIAKMIISDVFQQC
Turning to B38, the dissociation constant Kd in the experiment with PKA RIIα (full-length) [2] is 2.5 nM; in the experiment with PKA RIα (full-length) [4], 1.1 nM.

B39: truncation SEQ 11 (peptide)
chain: QEELAWKIAKM
Consider B39, for which the binding result with PKA-RIα-GFP [10] and in the experiment with PKA-RIIα-GFP [11] was “no binding” in each case.

B40: truncation SEQ 12 (peptide)
chain: EELAWKIAK
As for B40, the binding result in the experiment with PKA-RIα-GFP [10] and with PKA-RIIα-GFP [11] was “no binding” throughout.

For orientation: Kd means the equilibrium constant for the complex coming apart. Read a low Kd as tighter binding.
